Source: the DeepSol protein solubility set

experiment: soluble on expression in E. coli; label from the status in PepcDB or PDB records

Row | Sequence | soluble on expression in E. coli
1 | MMEHDRARTRAWVLHPELKSDLDRRDPVPALEEAVALAAALPDLDVVGSGIVRLPKPHPGHLFGSGKVEELATLFHDNEVELVLIDGPLSPVQQRNLEKAWKVKILDRTGLILEIFSDRARTREGVLQVEMAALSYQRTRLVRAWTHLERQRGGLGFVGGPGETQIEADRRAIDEQLVRLKRQLDKVVKTRELHRKARAKVPYPIVALVGYTNAGKSTLFNRLTGAEVMAKDMLFATLDPTMRRVVLPDGPEVILSDTVGFISDLPTELVAAFRATLEEVLAADLIVHVRDIHHAATEEQARDVETILASLGVDEGRPKFEVWNKVDLLDPDKRAALRERTARDPSLFAVSAVTGEGLESLLTAIAEALAETRSEAVLTLGFADGKRRAWLFAQDVVQAEEQSDDGFRLTVLWTPRQAARYAALLEHHHHHH | soluble
2 | GVALGATRVIYPEGQKQVQLAVTNNDDKSSYLIQSWIENAEGKKDARFVITPPLFSMQGKKENTLRIIDATNGQMPEDRESLFWVNVKAIPAMDKAKTGENYLQFAIVSRIKLLYRPQGLVIPPEQAPGKLEFTRENGGLTLFNPTPYYLTVTDLKAGNKSLENTMVPPQGKVTVNIPGGYTGGDITYKTINDYGALTEQVRGVVK | soluble
3 | GMSRAPDTWILTADCPSMLGTVDVVTRYLFEQRCYVTEHHSFDDRQSGRFFIRVEFRQPDDFDEAGFRAGLAERSEAFGMAFELTAPNHRPKVVIMVSKADHCLNDLLYRQRIGQLGMDVVAVVSNHPDLEPLAHWHKIPYYHFALDPKDKPGQERKVLQVIEETGAELVILARYMQVLSPELCRRLDGWAINIHHSLLPGFKGAKPYHQAYNKGVKMVGATAHYINNDLDEGPIIAQGVEVVDHSHYPEDLIAKGRDIECLTLARAVGYHIERRVFLNANRTVVL | soluble
4 | MSLKKIQFFDTTLRDGEQTPGVNFDVKEKIQIALQLEKLGIDVIEAGFPISSPGDFECVKAIAKAIKHCSVTGLARCVEGDIDRAEEALKDAVSPQIHIFLATSDVHMEYKLKMSRAEVLASIKHHISYARQKFDVVQFSPEDATRSDRAFLIEAVQTAIDAGATVINIPDTVGYTNPTEFGQLFQDLRREIKQFDDIIFASHCHDDLGMATANALAAIENGARRVEGTINGIGERAGNTALEEVAVALHIRKDFYQAETNIVLNQFKNSSDLISRLSGMPVPRNEGHHHHHH | soluble
5 | MSLDTMWFRNIDNFINEINRFALLGTVTNKNGWLINNGIYYAGRLGKLHSTPTKGQQVVTDAMRIYPYLGEQYFVAAEQITTNYGGIDANGKTVNLDQIREEGKKKYLPKTYTFDDGAIVFKAGDKVSEEKIKRLYWAAKEVRSQFYRTVGSDKPLEKWTCEGHHHHHH | not soluble
6 | MSLSKVLYIQDHDVTWIQFNRPEKRNAIDEETMDQFAEALAQAKGDQSKVIIVTGAGEKAFCAGGDLSSFHKLKTESEAKAMLAKMAKILLDVYYCPKLTVAALNGAAVGGGCEIAAACDIRLAAPHSKFGFIQGTLGITTGWGGTSFLMTRVQPHVSLEMTMTGKVYSSDVGENLGFIQKVIQKIPFREGVKEWLGLYTVLDQEVLIAYKERHLDRISRKELIWRIEREVAKCAQLWERDAHHEAVDAFLREGHHHHHH | soluble
7 | MSLKKSLATIRAEERNYFQSPKWFCDFVEKPIQGLEREEGVHRRDPSSIIKVDNLYYVYYTKSYGPHVGFNTGDLNAKVFPWDYSEIWVATSEDGYVWEEKGVAVTRGEAGRYDDRSVFTVEVMKYDGKYYLVYQTVQHPYVNRSFENIAIAWSDNPLGPFQKSDEPILRPTGDGIWDTEEDNRFLVKKKGSFDSHKVHDPLLFHYRDKFYLYYKGEPMGEEIFMGGRETKWGVAIADSIEGPYIRSEYNPITNSGHETCLWQYKEGMAAFLRTDGVEKNTLQFAEDGINFQIMSVIKWGPEACGPYRPDEIITDDPLEGMKWGMSHSLGKPGCPYGCLVRFDINTKQRDIYAARKKYEEGHHHHHH | soluble
8 | GHMSVYHHILLAVDFSSEDSQVVQKVRNLASQIGARLSLIHVLDNIPMPDTPYGTAIPLDTETTYDAMLDVEKQKLSQIGNTLGIDPAHRWLVWGEPREEIIRIAEQENVDLIVVGSHGRHGLALLLGSTANSVLHYAKCDVLAVRLRDD | soluble
9 | MGSDKIHHHHHHVSSDQVAVAGNAERLFNGAWYNLFEYGTTYANIGYRALQCQDDMMASDVVSRPKYGFNSSYQFNDVAIPSDGRTSFAWYLIYKTIDNCNTAISIKGDSEELRQAQGQALALRAFCYLHLVQHYQFTYLKDKDAPCVPIYTEPTTSGTKPKGKSTVAQVYQQIFDDLNLAQDYLTNYVRKGDGQKFKPNTDVVNGLMARAYLLTGQWGEAAKAAEAARKGYSLMTTTAEYEGFNNISNKEWIWGSPQTLSQSDASYNFYYLDATYVGAYSSFMADPHLMDTFVKGDIRLPLFQWMREGYLGYKKFHMRSDDTADLVLMRSAEMYLIEAEAKVRDGVALDQAVAPLNTLRTARGVGNYDVTGKTKEQVIDEILMERRRELWGEGFGITDVLRNQKAVERMALSEDMQKTEVDCWQEGGSFAKRNPLGHWFLNFPDGKAFSANSSYYLYAIPEKEINANPNL | not soluble
10 | MKAARQQAIVDLLINHKSLTTEALATRLNVSKETIRRDLSELQTQGKVLRNHGRAKYIHRENQDSGDPFHIRLKSHYAHKADIAREALAWIEEGMTIALDASSTCWYLARQLPDIPIQVFTNSHPICQELGKRERIALISSGGQLERKYGCYVNPSLISQLKSLDIDLFIFSCEGIDGGGDLWDSNAINADFKSILLRRASQSLLLIDKSKFNRSGEARIGHLDDVTHIVSDAPQSLEHHHHHH | not soluble
11 | MGLGSSKRKEEPPHKSEPKTVGRVKRAGARPDEMIAKYAEVLKTRGILPEYFLVHEAKSSQYIDEDGDVANEFYQETMSDGEKRRLCRLMKNLRPKGKERYAIPRLKHDIPVVIWEVQQPQET | not soluble
12 | MAHHHHHHMGQDQSRAKACQLGQAETGGTDRSVSAGSASAAPWEAPVSLAGVEGFQVVRLLPDSPAHKAGLIPFFDIVTALDKVLLESEGKAALSFFKSYVANHRDQPVCFTTFNLYSRTYRDVYCVPSDEWGGGGLLGCSIEWTRADACPERCVHVVDVLEGSPAACSTELQANRDYIIGMQTVQETLITLIKSQKDFYCRLEAWHEEQRWALERKQFFPNERVEVPHVLLFLVYNSESNTIEEVEVEMGTNPEAAVGISVATGLLHIIPSVATADLAVGASLPVMSKFASVGHSVVTPTRAQQQEHQLLQDVSLTPAVGAAPQPREQSQESTGSAQPLPSLPLPQEAHARCAVVDSPEVHTMTNPHEPPMNSCPQPCPPRPQLQQQLTEAALYSMPSLASFNVAPPPRHDAAGGTAAAAVEMGQKPFNPFAEEASPDYDVLEGAPLAHEGVMAAEHHLGQHAPTMEQPYSSSYPPLSSQSPPLSGSLPAQMNGSHNPATALPSYSAPPPPPQQLHVTTMPTFSSQRMPPPLQFPVFPGAAAAKRAPA | not soluble
13 | MSLQSFENEIAFITGGASGAGFGQAQVFGRAGAKIVVADVRAEAVERAVAALKAEGIVAHGLVLDITDRQAYAGAADEVEQVFGAAPTLLFNTAGVNSFGPVEDTSYDDFDWIVGVNLGGVINGMVTFVPRMIASGRPGHIVTTSSLGGLMGSALAAPYSAAKAAVINLMESYRQGLDKHGIGVSVLCPANIKSNIAEASRLRPAQFGKSGYVENEESIASLHSIHQHGMDPVELAEHVKAGIVANQLYIIPYPEAKDGLRQHFDAIVDAVLPLEADPEGARARTEALNAWAADRARVFMEKNAAQKAEGHHHHHH | not soluble
14 | MAHHHHHHMCVSELRRLRGHGRNVYIIYDVAKGGTPPPRHFAPTSGWGMIVVPSPNVANYDEWAKQLQAARVIVNCPDEVDVKAICTWMKQGQDPGKQAEYWRIVEERMKRVGPILRYIFDGESYIDPLGAVNDALLAMKPSDVGEYFTLGGEKTWCSEDPCHKLVKIVRARTDEGAEVFLNASISADIGFRTADRLKKEMCARDLLLLILRSHGALASQALEKFGLRAFMYGEPVSALVKGLNELRSPERDEAQDSVLKVNHQGHPTRAVGLA | soluble
15 | MDKLESNKKAPLYQQLYDAILNKVRSGEYQVGEKIPSEEQLMTIYGVSRVTVRNAIKQLVDENILIKRHGKGTFVSMPSYVESMTAGGSFTESGLKMNRKPTTKIISICLKKATGHVAEALGVEKATEVIVIERLRSLDNMPAIFEIDYFRKEDQFMLDLELTDTSLLDILRQYRGVIASYFDNIIEIALADEKLAEALAISEEEALVKINQTVVDNDNQILYFNEQYILSESYKVAIRSYNK | not soluble
16 | MCTELEPHQRLKKIIDEIGVSQTKLACKYLGRATINKIIRGERPLNAAQAYKFIQRFKDFGYNADIELILGIPTKTIDSTVKKFLSNTKKHYLEFDKLIDKLYKDKAIEVIWNVIEKLDIQDVYKNANIILKYLTKLMQYDLDADIYLKVNIELIKIYTATANYERAITAFNSLKNFSILDRETKVKCFLNVALAYYNLREYKSSIDIASRVMKLKIFDKYYFKASIIKANVLYTDGRINESIKEYEKIAIKAEKYHFIEYVATSESNIGYVFTEQNKFNEAKLHLDEAMKLFDSLNNYYKLNVYDNVFGFKIKNNTADFDTFKKVILLAYDTNDKFRIKNNVKQFVNYAIRNKKSKEIFTKIIDFLNPKGIDLDSSLKLEIMEYVSGNTFESVLKLEHHHHHH | not soluble
17 | HHHHHHSKEELLKLTETVVTEYLNSGNANEAVNGVREMRAPKHFLPEMLSKVIILSLDRSDEDKEKASSLISLLKQEGIATSDNFMQAFLNVLDQCPKLEVDIPLVKSYLAQFAARAIISELVSISELAQPLESGTHFPLFLLCLQQLAKLQDREWLTELFQQSKVNMQKMLPEIDQNKDRMLEILEGKGLSFLFPLLKLEKELLKQIKLDPSPQTIYKWIKDNISPKLHVDKGFVNILMTSFLQYISSEVNPPSDETDSSSAPSKEQLEQEKQLLLSFKPVMQKFLHDHVDLQVSALYALQVHCYNSNFPKGMLLRFFVHFYDMEIIEEEAFLAWKEDITQEFPGKGKALFQVNQWLTWLETA | soluble
18 | MGSDKIHHHHHHMVVILSERAFSRRDQTGAEVMLNRRRFLTNAATAAAATLWVSKGGMQARAEEAGNGSPWRRFEIITKVDLQPAEGPAQLWLPVVRSAGDYQKADAPLWVSNSTDIRMEKDPSSGADILRVMWEDEPRRVIEVTQHVATRDRRVTSKIAATEAELQHELRGTPSMPVDGIVKTTAMRIVEGRDRAEDRARAIYDWVIDNTFRDANIDGCGVGNARDMLETGYFGGKCADISSLFVSLARAAGLPARDVFGIRVADSADFKSLGRSGDITKAQHCRAEVYLDAHGWVPVDPADVRKVVLEENLPLDNPAVRAFREKAYGNWEMNWVGYNTARDLVLPGGELRQGFLMYPAAVTSRGELDCLNPQTFAYSITSREITA | not soluble
19 | MYNSKQFLRTVNWHFVNSCNMSCKYCFVSCCKELPLEESISVLEKLKGHFDRINFVGGEPTVSSKLIPLVKKAKEYGFIVSMVTNGFNLYHKPETFDEILTDFSIIGISIDSLNENTNVLIGRSVKNSVLSRDDYIDLCKKIKLAGCKLKINTVVSRVNLDENFNDFYETVMPDRIKLLQVLRPAGRLKQDYTDFLIEEDDYLEFVQRHHKFSEVICSENNELMLNSYYILNSDACFLDNKSGCISGSLLENDLKSVLKNVYVDENKYRARYA | not soluble
20 | MPADTRPAAIVLMGPTASGKSQLAIDIAKRWGGEVISVDSVLVYRGLDIGTAKPNAAMRASVPHHLIDICEPWETYSAADFAHDARAAIDMIVRRGALPILTGGTGLYFRALLAGLSDMPPAHPEIRAMIAAEAKRDSWAALHTRLAEVDAITAARIHATDPQRIQRALEVYLVSGQSMSDWQNQPPKQRLPLRVLKLVLAPTHRKVLHFRIAQRFKAMLDNGLLAEVNALRTHPSIHAMARPLDLPAMRAVGYRQCWEHLDGMYTAEMLYQRSVAATRQLAKRQLTWLRGELDALWFDPEHDQSRIEKVMEAFLNRLEHHHHHH | not soluble
